IntAct's records for PubMed 35512704

B1: Mothers against decapentaplegic homolog 4 (Homo sapiens), Q13485 (parent)
chain: MDNMSITNTPTSNDACLSIVHSLMCHRQGGESETFAKRAIESLVKKLKEKKDELDSLITAITTNGAHPSKCVTIQRTLDGRLQVAGRKGFPHVIYARLWRWPDLHKNELKHVKYCQYAFDLKCDSVCVNPYHYERVVSPGIDLSGLTLQSNAPSSMMVKDEYVHDFEGQPSLSTEGHSIQTIQHPPSNRASTETYSTPALLAPSESNATSTANFPNIPVASTSQPASILGGSHSEGLLQIASGPQPGQQQNGFTGQPATYHHNSTTTWTGSRTAPYTPNLPHHQNGHLQHHPPMPPHPGHYWPVHNELAFQPPISNHPAPEYWCSIAYFEMDVQVGETFKVPSSCPIVTVDGYVDPSGGDRFCLGQLSNVHRTEAIERARLHIGKGVQLECKGEGDVWVRCLSDHAVFVQSYYLDREAGRAPGDAVHKIYPSAYIKVFDLRQCHRQMQQQAATAQAAAAAQAAAVAGNIPGPGSVGGIAPAISLSAAAGIGVDDLRRLCILRMSFVKGWGPDYPRQSIKETPCWIEIHLHRALQLLDEVLHTMPIADPQPLD
partner: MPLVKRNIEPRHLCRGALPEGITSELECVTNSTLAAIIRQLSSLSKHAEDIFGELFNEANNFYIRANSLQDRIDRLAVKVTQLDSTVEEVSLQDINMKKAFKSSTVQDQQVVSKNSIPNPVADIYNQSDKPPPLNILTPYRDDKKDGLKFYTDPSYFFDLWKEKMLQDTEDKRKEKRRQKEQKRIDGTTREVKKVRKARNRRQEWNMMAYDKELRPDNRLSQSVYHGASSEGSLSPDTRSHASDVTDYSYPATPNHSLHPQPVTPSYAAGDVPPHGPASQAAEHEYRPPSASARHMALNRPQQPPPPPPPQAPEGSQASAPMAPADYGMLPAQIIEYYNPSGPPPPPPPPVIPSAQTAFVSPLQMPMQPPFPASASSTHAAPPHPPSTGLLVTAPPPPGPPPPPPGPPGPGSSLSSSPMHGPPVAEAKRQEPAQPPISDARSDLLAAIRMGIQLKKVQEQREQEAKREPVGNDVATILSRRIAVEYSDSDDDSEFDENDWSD
B2: Speckle-type POZ protein (Homo sapiens), O43791 (parent)
chain: MSRVPSPPPPAEMSSGPVAESWCYTQIKVVKFSYMWTINNFSFCREEMGEVIKSSTFSSGANDKLKWCLRVNPKGLDEESKDYLSLYLLLVSCPKSEVRAKFKFSILNAKGEETKAMESQRAYRFVQGKDWGFKKFIRRDFLLDEANGLLPDDKLTLFCEVSVVQDSVNISGQNTMNMVKVPECRLADELGGLWENSRFTDCCLCVAGQEFQAHKAILAARSPVFSAMFEHEMEESKKNRVEINDVEPEVFKEMMCFIYTGKAPNLDKMADDLLAAADKYALERLKVMCEDALCSNLSVENAAEILILADLHSADQLKTQAVDFINYHASDVLETSGWKSMVVSHPHLVAEAYRSLASAQCPFLGPPRKRLKQS
partner: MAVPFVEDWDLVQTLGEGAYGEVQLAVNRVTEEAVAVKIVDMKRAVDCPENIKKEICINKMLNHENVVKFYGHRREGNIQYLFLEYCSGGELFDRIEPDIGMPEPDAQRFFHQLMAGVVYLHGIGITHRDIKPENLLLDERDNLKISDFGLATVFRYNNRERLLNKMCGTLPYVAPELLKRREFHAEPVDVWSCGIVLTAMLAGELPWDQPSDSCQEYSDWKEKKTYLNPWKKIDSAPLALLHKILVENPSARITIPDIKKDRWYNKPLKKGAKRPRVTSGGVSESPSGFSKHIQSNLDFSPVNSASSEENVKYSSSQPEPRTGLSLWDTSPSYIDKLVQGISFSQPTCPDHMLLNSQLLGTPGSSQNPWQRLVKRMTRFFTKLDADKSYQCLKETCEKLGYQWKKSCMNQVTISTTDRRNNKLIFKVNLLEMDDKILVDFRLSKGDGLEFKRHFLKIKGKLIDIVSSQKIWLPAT
B3: Speckle-type POZ protein (Homo sapiens), O43791 (parent)
chain: B2 chain
partner: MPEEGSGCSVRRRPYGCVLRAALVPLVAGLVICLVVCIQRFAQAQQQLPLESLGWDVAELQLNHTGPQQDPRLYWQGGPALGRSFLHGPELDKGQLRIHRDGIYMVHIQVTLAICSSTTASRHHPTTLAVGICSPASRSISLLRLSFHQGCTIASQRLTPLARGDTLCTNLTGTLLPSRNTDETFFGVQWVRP
B4: Mothers against decapentaplegic homolog 4 (Homo sapiens), Q13485 (parent)
chain: B1 chain
partner: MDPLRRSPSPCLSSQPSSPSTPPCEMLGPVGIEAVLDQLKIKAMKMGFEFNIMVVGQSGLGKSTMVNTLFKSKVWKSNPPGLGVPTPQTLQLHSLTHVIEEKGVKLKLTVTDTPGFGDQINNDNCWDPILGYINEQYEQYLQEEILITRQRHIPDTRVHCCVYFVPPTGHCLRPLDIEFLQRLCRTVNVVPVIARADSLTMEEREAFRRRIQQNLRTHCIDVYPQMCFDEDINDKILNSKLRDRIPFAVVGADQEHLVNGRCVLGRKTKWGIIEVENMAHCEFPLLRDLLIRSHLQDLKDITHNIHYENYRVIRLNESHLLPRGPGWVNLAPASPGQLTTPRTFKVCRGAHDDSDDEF

Variants of: B1
Conditions: with wasf3_human WASF3, Q9UPY6

effect of a mutation on the interaction | Variant
with no effect | R361C

Variants of: B1
Conditions: with wasf3_human WASF3, Q9UPY6
Remark: another data set of the same source

effect of a mutation on the interaction | Variant
with no effect | D351H

Variants of: B2
Conditions: with chk1_human CHEK1, O14757

effect of a mutation on the interaction | Variant
with no effect | F133V

Variants of: B2
Conditions: with chk1_human CHEK1, O14757
Remark: another data set of the same source

effect of a mutation on the interaction | Variant
with no effect | F133L

Variants of: B2
Conditions: with chk1_human CHEK1, O14757
Remark: another data set of the same source

effect of a mutation on the interaction | Variant
with no effect | Y87C

Variants of: B2
Conditions: with chk1_human CHEK1, O14757
Remark: another data set of the same source

effect of a mutation on the interaction | Variant
with no effect | F102C

Variants of: B3
Conditions: with cd70_human CD70, P32970

effect of a mutation on the interaction | Variant
with no effect | Y87C

Variants of: B3
Conditions: with cd70_human CD70, P32970
Remark: another data set of the same source

effect of a mutation on the interaction | Variant
with no effect | F102C

Variants of: B3
Conditions: with cd70_human CD70, P32970
Remark: another data set of the same source

effect of a mutation on the interaction | Variant
with no effect | F133V

Variants of: B3
Conditions: with cd70_human CD70, P32970
Remark: another data set of the same source

effect of a mutation on the interaction | Variant
with no effect | F133L

Variants of: B4
Conditions: with sep12_human SEPTIN12, Q8IYM1

effect of a mutation on the interaction | Variant
with no effect | R361C
